Measurements reported in patent US20210388081A1 (Memorial Sloan Kettering, published 2021).

T1: FcRL3, overexpressed on 3T3 cells (UniProt Q96P31 18-734, limits assumed)
T1 construct: whole, on cells
T1 sequence (looked up): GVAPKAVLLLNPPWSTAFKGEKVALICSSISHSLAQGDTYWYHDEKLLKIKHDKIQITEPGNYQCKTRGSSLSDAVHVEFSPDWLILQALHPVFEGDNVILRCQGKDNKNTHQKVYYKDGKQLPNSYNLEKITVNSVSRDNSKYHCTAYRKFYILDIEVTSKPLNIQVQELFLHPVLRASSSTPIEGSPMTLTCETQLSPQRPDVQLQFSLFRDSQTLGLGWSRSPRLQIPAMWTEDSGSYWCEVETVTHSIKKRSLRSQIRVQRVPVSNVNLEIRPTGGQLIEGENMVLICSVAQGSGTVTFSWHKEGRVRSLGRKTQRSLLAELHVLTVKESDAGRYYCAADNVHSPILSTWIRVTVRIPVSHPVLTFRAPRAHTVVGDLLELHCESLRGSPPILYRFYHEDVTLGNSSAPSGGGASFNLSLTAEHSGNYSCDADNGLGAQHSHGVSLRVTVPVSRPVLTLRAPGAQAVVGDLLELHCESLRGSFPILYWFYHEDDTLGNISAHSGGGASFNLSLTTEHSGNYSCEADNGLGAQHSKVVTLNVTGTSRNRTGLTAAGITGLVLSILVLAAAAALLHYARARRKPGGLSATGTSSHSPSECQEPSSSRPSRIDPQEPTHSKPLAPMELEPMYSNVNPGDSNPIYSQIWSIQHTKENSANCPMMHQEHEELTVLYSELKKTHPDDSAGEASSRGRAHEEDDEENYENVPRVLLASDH

T2: FcRL1, overexpressed on 3T3 cells (UniProt Q96LA6 17-429, limits assumed)
T2 construct: whole, on cells
T2 sequence (looked up): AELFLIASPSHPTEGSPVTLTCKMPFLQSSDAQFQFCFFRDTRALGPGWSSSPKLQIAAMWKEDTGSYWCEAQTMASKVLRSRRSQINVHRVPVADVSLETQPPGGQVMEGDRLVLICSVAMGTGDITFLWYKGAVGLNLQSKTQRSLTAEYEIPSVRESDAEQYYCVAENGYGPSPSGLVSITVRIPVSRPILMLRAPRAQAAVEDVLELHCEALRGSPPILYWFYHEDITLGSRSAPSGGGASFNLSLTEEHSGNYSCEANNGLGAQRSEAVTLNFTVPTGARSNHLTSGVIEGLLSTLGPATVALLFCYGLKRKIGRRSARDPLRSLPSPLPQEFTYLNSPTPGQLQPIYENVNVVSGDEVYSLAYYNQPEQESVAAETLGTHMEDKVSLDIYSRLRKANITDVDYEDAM

B1: ET200-110 (scFv)
scFv: QSVLTQPPSASGTPGQRVTISCSGSSSNIGTNGVNWFQQFPGTAPKLLIYTNDQRPSGVPDRFSGSKSGTSASLAISGLQSADEADYYCAVWDHSLNGPVFGGGTKLTVLGSRGGGGSGGGGSGGGGSLEMAQVQLVQSGAEVKKPGSSVKVSCKASGGTFSSYAISWVRQAPGQGLEWMGGIIPIFGTANYAQKFQGRVTITADESTSTAYMELSSLRSEDTAVYYCARGAGFDAFDIWGQGTMVTVSSTSGQAGQHHHHHHGAYPYDVPDYAS
notes: screened as phage clone; entry is VL-linker-VH-His tag-HA tag
B2: ET200-105 (scFv)
scFv: SYVLTQPPSVSVSPGQTASITCSGDRLTNKYVSWYQQKPGQSPVLVIYEDAKRPSGIPARFSGSNSGNTATLTISGTQAMDESEYYCQAWDSSVVVFGGGTKLTVLGSRGGGGSGGGGSGGGGSLEMAEVQLVESGGGLVQPGRSLRLSCAASGFTFDDYAMHWVRQAPGKGLEWVSGISWNSGSIGYADSVKGRFTISRDNAKNSLYLQMNSLRDEDTALYYCAKDRGGGVIVKDAFDIWGQGTMVTVSSTSGQAGQHHHHHHGAYPYDVPDYAS
notes: as for B1
B3: ET200-106 (scFv)
scFv: SYELTQPPAASGTPGQRVTISCSGGVSNIGSGALNWYQQLPGTAPKLLIYSYNQRPSGVSDRFSGSRSATSASLAISGLQSEDEADYYCATWDDSVNGWVFGGGTKLTVLGSRGGGGSGGGGSGGGGSLEMAEVQLVESGAEVKKPGDSVKVSCKPSGYNFLNYGINWVRQAPGQGLEWMGWISTYTGNTNYAQKLQGRVTFTTDTSTSTAYMEMRSLRSDDTAVYYCARQQGGGWYDVWGQGTLVTVSSTSGQAGQHHHHHHGAYPYDVPDYAS
notes: as for B1
B4: ET200-118 (scFv)
scFv: QAVLTQPASVSGSPGQSITISCTGTSSDVGGYNYVSWYQQHPGKAPKLMIYEVSNRPSGVSNRFSGSKSGNTASLTISGLQAEDEADYYCSSYTSSSTPYVFGAGTKVTVLGSRGGGGSGGGGSGGGGSLEMAEVQLVESGGGLVQPGRSLRLSCAASGFTFDDYAMHWVRQAPGKGLEWVSGISWNSGSIGYADSVKGRFTISRDNAKNSLYLQMNSLRAEDTALYYCAKARWTAVASDHHFDYWGQGTLVTVSSTSGQAGQHHHHHHGAYPYDVPDYAS
notes: as for B1
B5: ET200-112 (scFv)
scFv: QAVLTQPPSASGTPGQRVTISCSGSSSNIGSNTVNWYQQLPGTAPKLLMYSNDQRPSGVPDRFSGSKSGTSASLAISGLQSEDEADYYCAAWDDSLNGYVFAAGTQLTVLSSRGGGGSGGGGSGGGGSLEMAQVQLQQWGAGLLKPSETLSLTCAVYGGSFSGYYWSWIRQPPGKGLEWIGEINHSGSTNYNPSLKSRVTISVDTSKNQFSLKLSSVTAADTAVYYCAREGLDAFDIWGQGTMVTVSSTSGQAGQHHHHHHGAYPYDVPDYAS
notes: as for B1
B6: ET200-113 (scFv)
scFv: QSVVTQPPSVSAAPGQKVTISCSGSSSNIGNNYVSWYQQLPGTAPKLLIYDNNKRPSGIPDRFSGSKSGTSATLGITGLQTGDEADYYCGTWDSSLSAAYVFGTGTKVTVLGSRGGGGSGGGGSGGGGSLEMAQVQLVQSGAEVKKPGASVKVSCKASGYSFTSYTISWVRQAPGQGLEWMGWVSTYNGLRNYAQNLQGRVTMTTDTLTTTAYMELRSLRSDDTAVYYCVREGSPDYGDFAAFDYWGQGTLVTVSSTSGQAGQHHHHHHGAYPYDVPDYAS
notes: as for B1
B7: ET200-103 (scFv)
scFv: QAVLTQPHSVSESPGKTVTISCTRSSGSIASNYVQWYQQRPGSAPTTVIYEDNQRPSGVPDRFSGSIDSSSNSASLTISGLKTEDEADYYCQSYDSTITVFGGGTKLTVLGSRGGGGSGGGGSGGGGSLEMAQVQLVQSGAEVKKPGSSVKVSCKASGGTFSSYAISWVRQAPGQGLEWMGGIIPIFGTANYAQKFQGRVTITADESTSTAYMELSSLRSEDTAVYYCAGEGYYDSSGYSNGDAFDIWGQGTMVTVSSTSGQAGQHHHHHHGAYPYDVPDYAS
notes: as for B1
B8: ET200-116 (scFv)
scFv: QPVLTQPPSVSVSPGQTAAIPCSGDKLGDKFASWYQQKPGQSPVLVIYQDTKRPSGIPERFSGSNSGNTATLTISGTQAMDEADYYCQTWASGIVVFGGGTKLTVLGSRGGGGSGGGGSGGGGSLEMAQVQLQQSGPGLVKPSQTLSLTCAISGDSVSSNSAAWNWIRQSPSRGLEWLGRTYYRSKWYNDYAVSVKSRITINPDTSKNQFSLQLNSVTPEDTAVYYCARERSGWKGFDYWGQGTLVTVSSTSGQAGQHHHHHHGAYPYDVPDYAS
notes: as for B1
B9: ET200-102 (scFv)
scFv: QSVVTQPPSVSAAPGQKVTISCSGSSSNIGNNYVSWYQQLPGTAPKLLIYDNNKRPSGIPDRFSGSKSGTSATLGITGLQTGDEADYYCGTWDSSLSAYVFGTGTKVTVLGSRGGGGSGGGGSGGGGSLEMAQVQLVQSGAEVKKPGASVKVSCKASGYTFTNYALHWVRQAPGQGLEWMAWINGGNGNTKYSQNFQGRVTITRDTSASTAYMELSSLRSEDTAVYYCAKPEETAGTIHFDYWGQGTPVTVSSTSGQAGQHHHHHHGAYPYDVPDYAS
notes: as for B1
B10: ET200-107 (scFv)
scFv: QSVVTQPPSVSAAPGEKVTISCSGSNFNVGNNDVSWYQQLPGAAPKLLIYDNNKRPSGIPDRFSGSKSGTSATLDITGLHSDDEADYYCGTWDSSLNTGGVFGTGTKVTVLGSRGGGGSGGGGSGGGGSLEMAEVQLVQSGAEVKKPGASVKVSCKASGYTFTSYTISWVRQAPGQGLEWMGWISTYNGLTNYAQNLQGRVTMTTDTFTTTAYMELRSLRSDDTAVYYCVREGSPDYGDFASFDYWGQGTLVTVSSTSGQAGQHHHHHHGAYPYDVPDYAS
notes: as for B1
B11: ET200-007 (scFv)
scFv: SYVLTQPLSVSVAPGKTARITCGGNNIGSKTVHWYQQKPGQAPVLVIYYDSDRPSGIPERFSGSNSGNTATLTISRVEAGDEADYYCQVWDSSSDHRVFGGGTKLTVLGSRGGGGSGGGGSGGGGSLEMAQVQLQESGPGLVKPSETLSLTCNVSGYSISSGYFWGWIRQPPGKGLEWIGSIYHSRSTYYNPSLKSRVTISVDTSKNQFSLKLNSVTAADTAVYYCARGYGYFDYWGQGTLVTVSSTSGQAGQHHHHHHGAYPYDVPDYAS
notes: as for B1
B12: ET200-115 (scFv)
scFv: QSVLTQPPSVSGAPGQRVTISCTGSSSNIGARYDVHWYQQLPGTAPRLLISANYDRPSGVPDRFSGSKSGTSASLAITGLQAEDEADYYCQSYDSSVSAWVFGGGTKVTVLGSRGGGGSGGGGSGGGGSLEMAEVQLVQSGAEVKEPGASVRISCQASGYNFISYYMHWVRQAPGQGLEWMGTINPGSGETDYSQKLQGRVTMTRDPSTGTFDMGLSSLTSGDTAVYYCATGLIRGASDAFNIWGRGTMVTVSSTSGQAGQHHHHHHGAYPYDVPDYAS
notes: as for B1
B13: ET200-109 (scFv)
scFv: LPVLTQPPSASATPGQRVTISCSGTTSNIGSNTVHWYQQLPGTAPKLLIYNNNQRPSGVPDRFSGSKSGTSASLAISGLRSEDEATYSCATWDDSLSGVVFGGGTKLTVLGSRGGGGSGGGGSGGGGSLEMAEVQLVQSGAEVKKPGSSVKVSCKASGGTFSSYAISWVRQAPGQGLEWMGGIIPIFGTANYAQKFQGRVTITADESTSTAYMELSSLRSEDTAVYYCARDPAYGDYEYDAFDIWGQGTMVTVSSTSGQAGQHHHHHHGAYPYDVPDYAS
notes: as for B1
B14: ET200-108 (scFv)
scFv: QSVLTQPPSVSAPPGQKVTISCSGSSSNIGNNYVSWYQQFPGTAPKLLIYDNNKRPSGISDRFSGSKSGTSATLGIAGLQTGDEADYYCGTWDTSLSGFYVFGSGTKVTVLGSRGGGGSGGGGSGGGGSLEMAEVQLVQSGAEVKKPGASVKVSCKASGYTFTSYTISWVRQAPGQGLEWMGWISTYNGLTNYAQNLQGRVTMTTDTFTTTAYMELRSLRSDDTAVYYCVREGSPDYGDFASFDYWGQGTLVTVSSTSGQAGQHHHHHHGAYPYDVPDYAS
notes: as for B1

How the values were obtained:
[1] = molecular target: T1, FcRL3, overexpressed on 3T3 cells; assay: phage clone on 3T3-FcRL3 cells
[2] = molecular target: T2, FcRL1, overexpressed on 3T3 cells; assay: phage clone on 3T3-FcRL1 cells

Row | Binder | binding result [1] | binding result [2]
1 | B1 | no binding | no binding
2 | B2 | no binding | no binding
3 | B3 | no binding | no binding
4 | B4 | no binding | no binding
5 | B5 | no binding | no binding
6 | B6 | no binding | no binding
7 | B7 | no binding | no binding
8 | B8 | no binding | no binding
9 | B9 | no binding | no binding
10 | B10 | no binding | no binding
11 | B11 | no binding | no binding
12 | B12 | no binding | no binding
13 | B13 | no binding | no binding
14 | B14 | no binding | no binding
